Assay [1] concerns the target T1, recombinant soluble human CD4 (human, UniProt P01730 26-396, limits assumed).
T1 construct: Soluble recombinant antigen used in ELISA and on or over the sensor chip; also called rCD4; sCD4
In words: association and dissociation rates of human CD4 antigen for the antibody; method not named.

The target in assay [2] is T2, native human CD4 on the cell surface (human, UniProt P01730 26-458).
T2 construct: whole, on cells; also called native CD4; CD4 on SupT1 cells
As to the kind of experiment: flow cytometry, serial dilutions on SupT1 cells. The protocol: (§1) The avidity and affinity determinations described above were performed with recombinant CD4 (rCD4). To determine the avidity of the human monoclonal antibodies for native CD4 (nCD4). […] Specifically, serial dilutions of antibody were incubated with SupT1 cells for 6 hr on ice, washed and detected any bound antibody with FITC-goat anti-human Fey.
(§2) *Human monoclonal antibodies were incubated in serial dilutions with SupT1 cells for 6 hrs, washed twice and incubated with FITC-conjugated goat anti-human Fey antisera, washed and fixed. The Ka was calculated from the concentration of antibody yielding one-half of the maximum fluorescence as determined from a four-parameter fit.
In general terms: In flow cytometry, cells or beads pass a laser one at a time.

In assay [3] the target is T1, recombinant soluble human CD4. In words: BIAcore, rCD4 coupled to chip, mAb flowed over. On the procedure: (§3) The rate and equilibrium constants presented in Table 19 were determined with a BIAcore, using antigen (rCD4) coupled to the sensor chip and flowing mAb over. These constants were derived from at least three independent experiments using purified mAbs.
Assay [4] has the same target. As to the kind of experiment: SPR, sCD4 amine-coupled to sensor chip, antibody flowed over. A general note: Surface plasmon resonance follows binding to a sensor surface in real time, without labels.
For assay [5] the target is unchanged. In words: BIAcore, mAb captured on anti-human IgG Fc chip, rCD4 flowed over. On the procedure: The rate and equilibrium constants presented in Table 18 were determined with a BIAcore (Pharmacia Biosensor) using goat anti-human IgG (Fc-specific) coupled to the sensor chip and flowing a saturating concentration of mAb over followed by various concentrations of antigen (rCD4). These constants were derived from three experiments using purified mAbs.

For assay [6], the target named is T2, native human CD4 on the cell surface. As to the kind of experiment: ratio of Ka on rCD4 (BIAcore) to Ka on nCD4 (flow cytometry, SupT1). On the procedure: as §3, §1, §2
The target in assay [7] is T1, recombinant soluble human CD4. In words: rCD4 column of Table 21 (same values as Table 19: BIAcore, rCD4 on chip). The protocol:
as §3

Assay [8] addresses T2, native human CD4 on the cell surface. In words: flow cytometry, serial dilutions on SupT1 cells, half-maximal fluorescence. The protocol:
as §1, §2

For assay [9], the target named is T3, chimpanzee CD4 on peripheral blood lymphocytes (chimpanzee, UniProt P16004 26-458).
T3 construct: whole, on cells; also called chimpanzee CD4 cells
As to the kind of experiment: two-colour flow cytometry on peripheral blood lymphocytes. On the procedure: (§4) It is further desirable for some purposes that the animal be a non-human primate that expresses CD4 comprising a cross-reactive epitope with human CD4 such that it is recognized by the monoclonal antibody. […] Peripheral blood lymphocytes were isolated from whole blood of chimpanzee, rhesus, and cynomolgus monkeys. […] The stained cells were then analyzed by flow cytometry to determine if each of the human monoclonal antibodies bound to endogenous CD4 on the surface of lymphocytes from each of these three non-human primates.

The target in assay [10] is T4, rhesus monkey CD4 on peripheral blood lymphocytes (rhesus monkey, UniProt P16003 26-458).
T4 construct: whole, on cells; also called rhesus CD4 cells
Described as above. The protocol: as §4

The target of assay [11] is T5, cynomolgus monkey CD4 on peripheral blood lymphocytes (cynomolgus monkey, UniProt P79185 26-458).
T5 construct: whole, on cells; also called cynomolgus CD4 cells
The description is as above. The protocol: as §4

T5 sequence (P79185 26-458): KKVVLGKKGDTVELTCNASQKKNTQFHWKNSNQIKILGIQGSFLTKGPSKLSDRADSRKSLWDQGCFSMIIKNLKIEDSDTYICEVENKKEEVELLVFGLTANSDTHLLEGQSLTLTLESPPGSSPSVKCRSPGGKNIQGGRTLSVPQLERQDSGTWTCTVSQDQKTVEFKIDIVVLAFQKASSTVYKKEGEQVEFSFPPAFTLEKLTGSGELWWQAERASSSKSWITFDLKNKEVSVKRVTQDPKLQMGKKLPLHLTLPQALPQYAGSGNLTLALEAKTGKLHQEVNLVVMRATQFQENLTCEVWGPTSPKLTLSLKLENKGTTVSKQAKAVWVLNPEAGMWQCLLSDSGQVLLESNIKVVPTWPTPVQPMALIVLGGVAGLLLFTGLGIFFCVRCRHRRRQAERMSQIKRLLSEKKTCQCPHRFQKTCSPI
T4 sequence (P16003 26-458): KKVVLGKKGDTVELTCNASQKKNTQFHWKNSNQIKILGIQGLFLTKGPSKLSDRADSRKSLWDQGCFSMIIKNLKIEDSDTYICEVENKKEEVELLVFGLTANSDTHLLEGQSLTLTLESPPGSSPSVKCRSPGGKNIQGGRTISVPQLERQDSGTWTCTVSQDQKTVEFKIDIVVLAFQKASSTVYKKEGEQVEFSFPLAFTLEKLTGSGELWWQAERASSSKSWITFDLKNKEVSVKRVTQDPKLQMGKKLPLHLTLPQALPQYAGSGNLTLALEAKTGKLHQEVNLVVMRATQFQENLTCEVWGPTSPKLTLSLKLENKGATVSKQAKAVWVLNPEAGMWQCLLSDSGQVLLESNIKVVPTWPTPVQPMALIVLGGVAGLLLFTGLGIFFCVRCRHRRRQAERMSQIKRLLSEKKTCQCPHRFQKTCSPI
T3 sequence (P16004 26-458): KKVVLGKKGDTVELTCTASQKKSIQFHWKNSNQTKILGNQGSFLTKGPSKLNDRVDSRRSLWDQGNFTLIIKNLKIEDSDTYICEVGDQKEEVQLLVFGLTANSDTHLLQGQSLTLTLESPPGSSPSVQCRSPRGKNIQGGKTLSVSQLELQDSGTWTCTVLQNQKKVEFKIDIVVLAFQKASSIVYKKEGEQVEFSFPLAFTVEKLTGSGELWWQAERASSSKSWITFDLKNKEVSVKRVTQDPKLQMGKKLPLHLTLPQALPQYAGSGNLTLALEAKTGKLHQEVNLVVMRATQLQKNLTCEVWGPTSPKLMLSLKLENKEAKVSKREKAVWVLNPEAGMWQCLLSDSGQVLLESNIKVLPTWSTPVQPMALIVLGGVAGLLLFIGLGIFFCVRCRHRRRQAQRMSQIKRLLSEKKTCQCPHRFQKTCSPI

B1: 4E4.2 (antibody, V domains shown)
VH: EVQLVQSGAEVKKPGESLKISCKGSGYRFTSYWIGWVRQMPGKGLEWMGIIYPGDSDTRYSPSFQGQVTISADKSISTAYLQWSSLKASDTAMYYCARAPTGDWFDPWGQGTLVTVSS
VL: DIQMTQSPSSLSASVGDRVTITCRASQGISSWLAWYQQKPDKAPKSLIYAASSLQSGVPSKFSGSGSGTDFTLTISSLQPEDFATYYCQQYNSYPPTFGGGTKVEIKR
Take B1: the Ka in assay [1] is ~9e+07 M⁻¹.

B2: 6G5.1 (antibody, human IgG1, V domains shown)
VH: QVQLQQWGAGLLKPSETLSLTCAVYGGSFSGYYWSWIRQPPGKGLEWIGEINHSGSTNYNPSLKSRVTISVDTSKNQFSLKLSSVTAADTAVYYCARVINWFDPWGQGTLVTVSS
VL: DIQMTQSPSSVSASVGDRVTITCRASQDISSWLAWYQHKPGKAPKLLIYAASSLQSGVPSRFSGSGSGTDFTLTISSLQPEDFATYYCQQANSFPYTFGQGTKLEIKR
notes: Human IgG1 kappa from a hybridoma of an HC2/KCo5 transgenic mouse; VH4-34/JH5; VkL19/Jk2
For B2, the Ka in [2] is > 1e+09 M⁻¹; in assay [3], 1.1e+10 M⁻¹; in assay [4], 1.1e+10 M⁻¹; in assay [5] it was 1.4e+08 M⁻¹; in [7], 1.1e+10 M⁻¹; in assay [8], 1e+09 M⁻¹. Moreover, the koff (commonly the rate constant with which the complex falls apart) was 1e-05 s⁻¹ in [3], 1e-05 s⁻¹ in assay [4] and 0.00069 s⁻¹ in assay [5]. For the same molecule, the on-rate (kon) (as a rule, a measure of how fast the partners come together) in assay [3] stood at 110000 M⁻¹ s⁻¹; in [4] it was 110000 M⁻¹ s⁻¹; in assay [5] it was 93000 M⁻¹ s⁻¹. For the same molecule, in [6], the “Ratio of Ka (rCD4/nCD4)” value came out at 5.9.

B3: 10C5.6 (antibody, human IgG1, V domains shown)
VH: QVQLQQWGAGLLKPSETLSLTCAVYGGSFSGYYWSWIRQPPGKGLEWIGEINHSGSTNYNPSLKSRVTISVDTSKNQFSLKLSSVTAADTAVYYCARVINWFDPWGQGTLVTVSS
VL: DIQMTQSPSSVSASVGDRVTITCRASQDISSWLAWYQHKPGKAPKLLIYAASSLQSGVPSRFSGSGSGTDFTLTISSLQPEDFATYYCQQANSFPYTFGQGTKLEIK
notes: Human IgG1 kappa from a hybridoma of an HC2/KCo5 transgenic mouse
Turning to B3, the Ka in [2] is > 1e+09 M⁻¹; in assay [3], 4.5e+09 M⁻¹; in assay [4], 4.5e+10 M⁻¹; in assay [5], 1.3e+08 M⁻¹; in [7], 4.5e+09 M⁻¹; in [8], 1e+09 M⁻¹. The values for the koff in [3], in [4] and in [5] were 1.6e-05 s⁻¹, 1.6e-05 s⁻¹ and 0.00071 s⁻¹, respectively. Moreover, the kon is 74000 M⁻¹ s⁻¹ in assay [3], 74000 M⁻¹ s⁻¹ in [4] and 94000 M⁻¹ s⁻¹ in [5]. Moreover, the binding result in assay [9], in assay [10] and in assay [11] was “binds” throughout. Further, the “Ratio of Ka (rCD4/nCD4)” value in assay [6] turned out to be 2.5.

B4: 2C5.1 (antibody, V domains shown)
VH: EVQLVQSGAEVKKPGESLKISCKGSGYRFTSYWIGWVRQMPGKGLEWMGIIYPGDSDTRYSPSFQGQVTISADKSISTAYLQWSSLKASDTAMYYCARAPTGDWFDPWGQGTLVTVSS
VL: DIQMTQSPSSLSASVGDRVTITCRASQGISSWLAWYQQKPEKAPKSLIYAASSLQSGVPSRFSGSGSGTDFTLTISSLQPEDFATYYCQQYNSYPPTFGGGTKVEIKR
As for B4, in assay [1], the Ka was ~8e+07 M⁻¹.

B5: 4D1.4 (antibody, V domains shown)
VH: EVQLVQSGAEVKKPGESLKISCKGSGYSFTGYWIGWVRQMPGKGLEWMGIIYPGDSDTTYSPSFQGQVTISADKSISTAYLQWSSLKASDTAMYYCARDQLGLFDYWGQGTLVTVSS
VL: DIQMTQSPSSLSASVGDRVTITCRASQGISSWLAWYQQKPEKAPKSLIYSASSLQSGVPSRFSGSGSGTDFTLTISSLQPEDFATYYCQQYDSYPYTFGQGTKLEIKR
notes: as for B3
Turning to B5, the Ka in [2] was > 1e+09 M⁻¹; in assay [3] it was 2.3e+09 M⁻¹; in assay [4], 2.3e+09 M⁻¹; in assay [5] it was 7.3e+07 M⁻¹; in assay [7] it was 2.3e+09 M⁻¹; in assay [8], 2e+09 M⁻¹. For the same molecule, the koff in [3] worked out at 4.2e-05 s⁻¹; in assay [4] it was 4.2e-05 s⁻¹; in [5], 0.0034 s⁻¹. Besides, the association rate constant (kon) is 98000 M⁻¹ s⁻¹ in assay [3], 98000 M⁻¹ s⁻¹ in assay [4] and 250000 M⁻¹ s⁻¹ in assay [5]. Also, the “Ratio of Ka (rCD4/nCD4)” value in [6] worked out at 1.2.

For the origin of these results see patent publication US20060183195A1 (published 2006).
